According to patent US20170342349A1, “STABILIZED ENZYME COMPOSITIONS” (NOVOZYMES A/S, priority 2014, published 2017):

How the values were obtained:
[1] = target: Protease C (SEQ ID NO 6) variant N60F + S100I (Lederbergia lenta (Bacillus lentus)) (UniProt P29600); assay: Ki fitted from Suc-AAPF-pNA activity in Model B detergent; IF relative to SEQ ID NO 6
[2] = target: Protease C (SEQ ID NO 6) variant N60H + S100I (Lederbergia lenta (Bacillus lentus)) (UniProt P29600); assay: as above
[3] = target: Protease C (SEQ ID NO 6) variant S100I + L134V (Lederbergia lenta (Bacillus lentus)) (UniProt P29600); assay: as above
[4] = target: Protease C (SEQ ID NO 6) variant N60F (Lederbergia lenta (Bacillus lentus)) (UniProt P29600); assay: as above
[5] = target: Protease C (SEQ ID NO 6) variant N60H (Lederbergia lenta (Bacillus lentus)) (UniProt P29600); assay: as above
[6] = target: Protease C (SEQ ID NO 6) variant L134V (Lederbergia lenta (Bacillus lentus)) (UniProt P29600); assay: as above
[7] = target: Protease C (SEQ ID NO 6) variant S100I (Lederbergia lenta (Bacillus lentus)) (UniProt P29600); assay: as above
[8] = target: Protease C (SEQ ID NO 6) variant V103A (Lederbergia lenta (Bacillus lentus)) (UniProt P29600); assay: as above
[9] = target: Protease C (SEQ ID NO 6) variant S100I + Y166F (Lederbergia lenta (Bacillus lentus)) (UniProt P29600); assay: as above
[10] = target: TY145 (SEQ ID NO 3) variant S173P + S175P + F180Y + G182A; assay: Ki fitted from Suc-AAPF-pNA activity in Model B detergent; IF relative to SEQ ID NO 3 comprising S173P + S175P + F180Y (second printed row for this variant)
Chain of TY145 (SEQ ID NO 3) variant S173P + S175P + F180Y (chain, as listed by the source S173P S175P F180Y S173P S175P F180Y limits assumed): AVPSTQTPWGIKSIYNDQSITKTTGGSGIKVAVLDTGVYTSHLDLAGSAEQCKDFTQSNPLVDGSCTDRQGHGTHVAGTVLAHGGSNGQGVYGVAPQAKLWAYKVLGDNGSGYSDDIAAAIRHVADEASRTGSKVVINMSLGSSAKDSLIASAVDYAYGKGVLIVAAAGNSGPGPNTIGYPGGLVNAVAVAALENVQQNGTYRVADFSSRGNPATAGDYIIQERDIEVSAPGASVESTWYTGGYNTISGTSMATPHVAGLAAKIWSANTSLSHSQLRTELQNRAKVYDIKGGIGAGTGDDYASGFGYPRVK

[11] = target: TY145 (SEQ ID NO 3) variant S173P + S175P + F180Y + L184F; assay: as above
[12] = target: TY145 (SEQ ID NO 3) variant S173P + S175P + I178F + F180Y; assay: as above
Chain of TY145 (SEQ ID NO 3) variant S173P + S175P (chain, as listed by the source S173P S175P S173P S175P limits assumed): as the sequence (chain, as listed by the source S173P S175P F180Y S173P S175P F180Y limits assumed) above, with Y180F counted along it

[13] = target: TY145 (SEQ ID NO 3) variant S173P + S175P + F180Y; assay: Ki fitted from Suc-AAPF-pNA activity in Model B detergent; IF relative to SEQ ID NO 3 comprising S173P + S175P + F180Y (the reference itself)
[14] = target: TY145 (SEQ ID NO 3) variant S173P + S175P; assay: Ki fitted from Suc-AAPF-pNA activity in Model B detergent; IF relative to SEQ ID NO 3 comprising S173P + S175P (the reference itself)
[15] = target: TY145 (SEQ ID NO 3) variant Q70N; assay: Ki fitted from Suc-AAPF-pNA activity at 8 inhibitor concentrations in Model B detergent; IF relative to SEQ ID NO 3
[16] = target: TY145 (SEQ ID NO 3) variant L184Y; assay: as above
Chain of TY145 (SEQ ID NO 3) variant L184Y (chain, as listed by the source L184Y L184Y limits assumed): as the sequence (chain, as listed by the source S173P S175P F180Y S173P S175P F180Y limits assumed) above, with P173S, P175S, Y180F, L184Y counted along it

[17] = target: TY145 (SEQ ID NO 3) variant Y240R; assay: as above
[18] = target: TY145 (SEQ ID NO 3) variant I150S; assay: as above
Chain of TY145 (SEQ ID NO 3) variant I150S (chain, as listed by the source I150S I150S limits assumed): as the sequence (chain, as listed by the source S173P S175P F180Y S173P S175P F180Y limits assumed) above, with I150S, P173S, P175S, Y180F counted along it

[19] = target: TY145 (SEQ ID NO 3) variant Q70A; assay: as above
[20] = target: TY145 (SEQ ID NO 3) variant G182A; assay: as above
Chain of TY145 (SEQ ID NO 3) variant G182A (chain, as listed by the source G182A G182A limits assumed): as the sequence (chain, as listed by the source S173P S175P F180Y S173P S175P F180Y limits assumed) above, with P173S, P175S, Y180F, G182A counted along it

[21] = target: TY145 (SEQ ID NO 3) variant Q70F; assay: as above
[22] = target: TY145 (SEQ ID NO 3) variant L184F; assay: as above
Chain of TY145 (SEQ ID NO 3) variant L184F (chain, as listed by the source L184F L184F limits assumed): as the sequence (chain, as listed by the source S173P S175P F180Y S173P S175P F180Y limits assumed) above, with P173S, P175S, Y180F, L184F counted along it

[23] = target: TY145 (SEQ ID NO 3) variant S114A; assay: as above
[24] = target: TY145 (SEQ ID NO 3) variant S111R; assay: as above
[25] = target: TY145 (SEQ ID NO 3) variant I150N; assay: as above

## Inhibitor 1: Cbz-Gly-Ala-NHCH(CH2C6H4pOH)C(OH)(SO3Na)-H (peptide)
[1]
  IF (binding constant improvement factor, relative Ki): 11.3
[2]
  IF (binding constant improvement factor, relative Ki): 6.65
[3]
  IF (binding constant improvement factor, relative Ki): 15.1
[4]
  IF (binding constant improvement factor, relative Ki): 3.25
[5]
  IF (binding constant improvement factor, relative Ki): 1.24
[6]
  IF (binding constant improvement factor, relative Ki): 2.89
[7]
  IF (binding constant improvement factor, relative Ki): 6.46
[8]
  IF (binding constant improvement factor, relative Ki): 1.49
[9]
  IF (binding constant improvement factor, relative Ki): 11.3
[10]
  IF (binding constant improvement factor, relative Ki): 2.01
[11]
  IF (binding constant improvement factor, relative Ki): 3.02
[12]
  IF (binding constant improvement factor, relative Ki): 1.83
[13]
  IF (binding constant improvement factor, relative Ki): 1
[14]
  IF (binding constant improvement factor, relative Ki): 1
[15]
  IF (binding constant improvement factor, relative Ki): 3.33
[16]
  IF (binding constant improvement factor, relative Ki): 4.47
[17]
  IF (binding constant improvement factor, relative Ki): 1.19
[18]
  IF (binding constant improvement factor, relative Ki): 4.94
[19]
  IF (binding constant improvement factor, relative Ki): 2.54
[20]
  IF (binding constant improvement factor, relative Ki): 1.86
[21]
  IF (binding constant improvement factor, relative Ki): 8.53
[22]
  IF (binding constant improvement factor, relative Ki): 2.27
[23]
  IF (binding constant improvement factor, relative Ki): 2.14
[24]
  IF (binding constant improvement factor, relative Ki): 1.11
[25]
  IF (binding constant improvement factor, relative Ki): 3.68
